# Values quoted from earlier work as cited in paper PMC3208733.
# Several values for one entry are separate records, joined by “and”; a condition that tells them apart may be missing. Equal entries are not always repeated.
# Target: scaffolding protein (Salmonella phage P22) (UniProt P26748)
substance,measurement,value
scaffolding protein (from UniProt P26748),Kd,78 µM and 170 µM
